B1: KREMEN1 expressed on HEK293E cells (receptor)
chain: ARPAPSPGLGPECFTANGADYRGTQNWTALQGGKPCLFWNETFQHPYNTLKYPNGEGGLGEHNYCRNPDGDVSPWCYVAEHEDGVYWKYCEIPACQMPGNLGCYKDHGNPPPLTGTSKTSNKLTIQTCISFCRSQRFKFAGMESGYACFCGNNPDYWKYGEAASTECNSVCFGDHTQPCGGDGRIILFDTLVGACGGNYSAMSSVVYSPDFPDTYATGRVCYWTIRVPGASHIHFSFPLFDIRDSADMVELLDGYTHRVLARFHGRSRPPLSFNVSLDFVILYFFSDRINQAQGFAVLYQAVKEELPQERPAVNQTVAEVITEQANLSVSAARSSKVLYVITTSPSHPPQTVPGSNSWAPPMGAGSHRVEGWTVYGLATLLILTVTAIVAKILLHVTFKSHRVPASGDLRDCHQPGTSGEIWSIFYKPSTSISIFKKKLKGQSQQDDRNPLVSD
B2: ASGR1 expressed on HEK293E cells (receptor)
chain: MTKEYQDLQHLDNEESDHHQLRKGPPPPQPLLQRLCSGPRLLLLSLGLSLLLLVVVCVIGSQNSQLQEELRGLRETFSNFTASTEAQVKGLSTQGGNVGRKMKSLESQLEKQQKDLSEDHSSLLLHVKQFVSDLRSLSCQMAALQGNGSERTCCPVNWVEHERSCYWFSRSGKAWADADNYCRLEDAHLVVVTSWEEQKFVQHHIGPVNTWMGLHDQNGPWKWVDGTDYETGFKNWRPEQPDDWYGHGLGGGEDCAHFTDDGRWNDDVCQRPYRWVCETELDKASQEPPLL

Target: SARS-CoV-2 S-ECD-hFc (extracellular domain of the spike (S) protein, hFc-tagged) (SARS-CoV-2, UniProt P0DTC2 14-1213)
Test: flow cytometry on cells

| Binder | Kd |
| --- | --- |
| B1 | 19.3 nM |
| B2 | 94.8 nM |

— article PMC8617373 (Cell Research, 2021)
